In the test the target is oxidized low-density lipoprotein (oxLDL) (oxidized with CuSO4 (residues not told)). The experiment in a line: MST; Cy5-labeled receptor (RED-NHS, lysines) at constant 20 nM, ligand in a 16-point 1:1 dilution series; exchange buffer (50 mM Hepes pH 7.5, 150 mM NaCl, 0.025% LMNG, 0.005% CHS); 25 °C, 40% MST power; apparent Kd, one-site specific binding; molar values from average molecular weights (267.5 kDa HDL, 3500 kDa oxLDL). Particulars: both partners purified.

This passage reports Kd results from PMC10509710, “Development and validation of a purification system for functional full-length human SR-B1 and CD36” (The Journal of Biological Chemistry, 2023).

B1: human full-length cluster of differentiation 36 (CD36), glycosylated (receptor, UniProt P16671 1-472, looked up)
chain: MGCDRNCGLIAGAVIGAVLAVFGGILMPVGDLLIQKTIKKQVVLEEGTIAFKNWVKTGTEVYRQFWIFDVQNPQEVMMNSSNIQVKQRGPYTYRVRFLAKENVTQDAEDNTVSFLQPNGAIFEPSLSVGTEADNFTVLNLAVAAASHIYQNQFVQMILNSLINKSKSSMFQVRTLRELLWGYRDPFLSLVPYPVTTTVGLFYPYNNTADGVYKVFNGKDNISKVAIIDTYKGKRNLSYWESHCDMINGTDAASFPPFVEKSQVLQFFSSDICRSIYAVFESDVNLKGIPVYRFVLPSKAFASPVENPDNYCFCTEKIISKNCTSYGVLDISKCKEGRPVYISLPHFLYASPDVSEPIDGLNPNEEEHRTYLDIEPITGFTLQFAKRLQVNLLVKPSEKIQVLKNLKRNYIVPILWLNETGTIGDEKANMFRSQVTGKINLLGLIEMILLSVGVVMFVAFMISYCACRSKTIK
modifications: glycosylated (Sf9); labeled with Cy5 via lysine residues in the MST
notes: CD36, human, full length, 472 amino acids as printed; the methods print a C-terminal hemaglutinin A secretion signal and an N-terminal PreScission cut site, His10 and FLAG; In detergent micelles when purified; also called glycosylated CD36; source: Sf9 cells, baculovirus (MOI 5): on cells and in lysate; also purified (LMNG/CHS solubilisation, TALON cobalt resin, desalting)
In the case of B1, the Kd worked out at 343 ± 286 nM.
